Results on one substance are retold here after US20090214574A1.

The target in assay [1] is native CD16A on human peripheral blood NK cells (human) (UniProt P08637). The assay is described as follows: cell-based or functional assay.
Assay [2] concerns the target CD16B-Fc^NA1 (human) (UniProt O75015). The assay is described as follows: SPR, BIAcore 2000, antigen immobilized.
For assay [3], the target named is CD16B-Fc^NA2 (human) (UniProt O75015). The experiment in a line: SPR, BIAcore 2000, antigen immobilized.
Chain of CD16B-Fc^NA2 (human) (O75015 17-200 N65S): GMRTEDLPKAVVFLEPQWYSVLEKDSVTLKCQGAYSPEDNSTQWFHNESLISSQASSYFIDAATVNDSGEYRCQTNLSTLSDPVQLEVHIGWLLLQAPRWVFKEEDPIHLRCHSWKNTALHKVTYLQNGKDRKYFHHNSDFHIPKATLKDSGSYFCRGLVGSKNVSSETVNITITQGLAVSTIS
The target in assay [4] is CD16B-Fc^SH (human) (UniProt O75015). The assay is described as follows: SPR, BIAcore 2000, antigen immobilized.
Chain of CD16B-Fc^SH (human) (O75015 17-200 N65S/A78D): as the sequence (O75015 17-200 N65S) above, with A62D counted along it
For assay [5], the target named is human CD16A-Fc^48R/158F fusion protein (human) (UniProt P08637). The experiment in a line: SPR, BIAcore 2000, antigen immobilized.
Chain of human CD16A-Fc^48R/158F fusion protein (human) (P08637 17-208): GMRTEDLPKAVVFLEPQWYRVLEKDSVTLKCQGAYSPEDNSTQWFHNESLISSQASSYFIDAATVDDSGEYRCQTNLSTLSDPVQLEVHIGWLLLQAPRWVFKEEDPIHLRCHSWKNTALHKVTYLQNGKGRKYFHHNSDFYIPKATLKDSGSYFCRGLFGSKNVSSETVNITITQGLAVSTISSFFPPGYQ
Assay [6] deals with human CD16A-Fc^48R/158V fusion protein (human) (UniProt P08637). The assay is described as follows: SPR, BIAcore 2000, antigen immobilized.
Chain of human CD16A-Fc^48R/158V fusion protein (human) (P08637 17-208 L66R/F176V limits assumed): as the sequence (P08637 17-208) above, with L50R, F160V counted along it
Assay [7] has as its target CD16B-Fc^NA1 (human) (UniProt O75015). The experiment in a line: SPR, BIAcore 2000, antigen immobilized, koff/kon.
The target of assay [8] is CD16B-Fc^NA2 (human) (UniProt O75015). The assay is described as follows: SPR, BIAcore 2000, antigen immobilized, koff/kon.
In assay [9] the target is CD16B-Fc^SH (human) (UniProt O75015). The assay is described as follows: SPR, BIAcore 2000, antigen immobilized, koff/kon.
For assay [10], the target named is human CD16A-Fc^48R/158F fusion protein (human) (UniProt P08637). The assay is described as follows: SPR, BIAcore 2000, antigen immobilized, koff/kon.
The target in assay [11] is human CD16A-Fc^48R/158V fusion protein (human) (UniProt P08637). The experiment in a line: SPR, BIAcore 2000, antigen immobilized, koff/kon.
The target is the same in assay [12]. The experiment in a line: SPR, BIAcore 2000, CD16A-Fc immobilized on CM5, koff/kon.
Assay [13] shares this target. The assay is described as follows: SPR, BIAcore 2000, CD16A-Fc immobilized on CM5, 1:1 Langmuir.

pKd: −log10 of the molar value.

Chain of CD16B-Fc^NA1 (human) (O75015 other isoform, or with tags, fused parts or gaps): as the sequence (O75015 17-200 N65S) above, with S20R, S49N, N66D, I90V counted along it
Chain of native CD16A on human peripheral blood NK cells (human) (P08637 17-254): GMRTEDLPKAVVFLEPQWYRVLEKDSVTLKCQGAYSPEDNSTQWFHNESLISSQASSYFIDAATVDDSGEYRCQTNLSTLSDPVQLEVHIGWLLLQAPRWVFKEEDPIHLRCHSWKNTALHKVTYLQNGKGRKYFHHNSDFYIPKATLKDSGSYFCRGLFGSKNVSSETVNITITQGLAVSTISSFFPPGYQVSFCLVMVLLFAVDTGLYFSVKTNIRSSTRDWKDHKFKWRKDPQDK

For the substance anti-CD16 murine monoclonal antibody A9, the lysis of P815 targets by NK cells (calcein release), 1 µg/mL antibody in [1] is 65%. The koff with CD16B-Fc^NA1 (human) [2] is 0.000487 s⁻¹; with CD16B-Fc^NA2 (human) [3], 0.000478 s⁻¹; in the assay with CD16B-Fc^SH (human) [4] it was 0.000528 s⁻¹; in assay [5] it was 0.00038 s⁻¹; in assay [6] it was 0.000406 s⁻¹; in assay [13], 0.000177 s⁻¹. Further, the kon in the assay with CD16B-Fc^NA1 (human) [2] stood at 77200 M⁻¹ s⁻¹; in the assay with CD16B-Fc^NA2 (human) [3] it was 75700 M⁻¹ s⁻¹; in the assay with CD16B-Fc^SH (human) [4], 77900 M⁻¹ s⁻¹; in assay [5], 99400 M⁻¹ s⁻¹; in [6] it was 78600 M⁻¹ s⁻¹; in assay [13], 101000 M⁻¹ s⁻¹. Besides, the pKd is 8.05 with CD16B-Fc^NA1 (human) [7]; 8.02 with CD16B-Fc^NA2 (human) [8]; 7.94 with CD16B-Fc^SH (human) [9]; 8.42 in assay [10]; 8.29 in [11]; 8.76 in assay [12].
